Experimental findings from US20240425589A1, “CYTOTOXICITY-INDUCING THERAPEUTIC AGENT FOR USE IN TREATMENT OF CANCER” (CHUGAI SEIYAKU KABUSHIKI KAISHA, priority 2021, published 2024) are described below.

The test system of data set [1] is hCLDN6/BaF, hCLDN3/BaF, hCLDN4/BaF, and hCLDN9/BaF. Nature of the data set: FACS analysis of specificity against CLDN family. In kind it is binding, human. Conditions: 15 micro g/ml, compared with 6PHU3/TR01. As for the experimental part:
Amino acid sequences are highly conserved among CLDN3, CLDN4, CLDN6 and CLDN9. Thus we examined CLDN6 binding specificity of CLDN6 binding Fv comprising 65HQ39E as VH and 54L0532Q38K as VL, by FACS analysis. hCLDN6/BaF, hCLDN3/BaF, hCLDN4/BaF, and hCLDN9/BaF were incubated with an anti-CLDN6/CD3 bispecific antibody (CS2961) comprising the CLDN6 binding Fv CLDN6AE25EK and a CD3 binding Fv (heavy chain variable region SEQ ID NO: 184, light chain variable region SEQ ID NO: 185) at 15 micro g/ml. Another anti-CLDN6/CD3 bispecific antibody (6PHU3/TR01) and an antibody without binding capability to CLDN6 (KLH/TR01) were used as a staining control. 6PHU3/TR01 and KLH/TR01 comprise the same CD3 binding Fv (heavy chain variable region SEQ ID No: 188, light chain variable region SEQ ID NO: 189). The CLDN6 binding Fv of 6PHU3/TR01 comprises a heavy chain variable region shown in SEQ ID NO: 190 and a light chain variable region shown in SEQ ID NO: 191. KLH/TR01 comprises a KLH binding Fv (heavy chain variable region SEQ ID NO: 186, light chain variable region SEQ ID NO: 187).
Binding of each antibody was detected with Alexa Fluor 488-conjugated anti human IgG (Invitrogen). Dead cells were separated by eFlour 780 (Invitrogen) staining. […]
(Flow cytometry measures light scatter and fluorescence of single cells or particles in a stream.)

Data set [2] in a line: Single dose toxicology study. The conditions noted are these: cynomolgus monkey, in vivo, iv. In kind it is in vivo, cynomolgus monkey. As for the experimental part: Potential toxicity of PPU4135 antibody (anti-CLDN6/Dual-Fab tri-specific antibody) was evaluated in toxicity study using cynomolgus monkeys compared with CS3348 antibody (anti-CLDN6/CD3 bispecific antibody). Because both PPU4135 and CS3348 antibodies cross-reacted with their antigens of cynomolgus monkey, cynomolgus monkey was selected as the animal species for evaluations in the in vivo toxicology studies. Since toxicological findings seemed to be more sensitive in male than female animals in the toxicity study with CS3348 (FIG. 14), 2 males were used for evaluation of the PPU4135-mediated toxicity. In these studies, dose levels were set at 100 (for CS3348) or 90 (for PPU4135) micro g/kg, which were approximately 2.57-fold efficacious concentration producing 80% of the maximal response.

B1: CS2961: anti-CLDN6/CD3 bispecific antibody comprising CLDN6 binding Fv CLDN6AE25EK and a CD3 binding Fv (SEQ ID NOs 184, 185) (antibody, V domains shown)
VH: QVQLVESGGGVVQPGGSLRLSCAASGFTFSNAWMHWVRKAPGKGLEWVAQIKDKSQNYATYVAESVKGRFTISRADSKNSIYLQMNSLKTEDTAVYYCRYVHYAAGYGVDIWGQGTTVTVSS
VL: DIVMTQSPLSLPVTPGEPASISCRSSQPLVHSNRNTYLHWYQEKPGQAPRLLIYKVSNRFSGVPDRFSGSGSGTDFTLKISRVEAEDVGVYYCGQGTQVPYTFGQGTKLEIK
modifications: CLDN6 binding Fv CLDN6AE25EK lacks SEQ ID
Take B1: the “specificity towards CLDN6 among CLDN3, CLDN4, CLDN6, CLDN9” value in data set [1] was “better specificity towards CLDN6”.

B2: CS3348: anti-CLDN6/CD3 bispecific antibody, chains SEQ ID NOs 193, 195, 194, 192; used as control (protein)
chain 1: QVQLVESGGGVVQPGGSLRLSCAASGFTFSSYTMSWVREAPGQGLEWMGTISSGGGRTYYPDSVKGRFTISRDNSKNTLYLQMNSLRDEDTAVYYCARGDYRYDGFAYWGEGTLVTVSSASTKGPSVFPLAPSSKSTSGGTAALGCLVEDYFPEPVTVSWNSGALTSGVHTFPAVLESSGLYSLSSVVTVPSSSLGTQTYICNVNHKPSNTKVDERVEPKSCDKTHTCPPCPAPEAAGGPSVFLFPPKPKDTLMISRTPEVTCVVVDVSHEDPEVKFNWYVDGVEVHNAKTKPREEQYASTYRVVSVLTVLHQDWLNGKEYKCKVSNKALPAPIEKTISKAKGQPREPQVYTLPPSREEMTKNQVSLTCLVKGFYPSDIAVEWESNGQPENNYKTTPPVLDSDGSFFLYSKLTVDKSRWQQGNVFSCSVMHEALHNHYTQESLSLSP
chain 2: DIQMTQSPSSLSASVGDRVTITCRASYNIDSYLAWYQKKPGKAPELLIYYSTLLVDGVPDRFSGSRSGTDFTLTISSLQPEDFATYYCQHYYSIPYTFGQGTKVEIERTVAAPSVFIFPPSDKQLKSGTAKVVCLLNNFYPREAKVQWKVDNALQSGNSKESVTEQDSKDSTYSLSSTLTLSKADYEKHKVYACEVTHQGLSSPVTKSFNRGEC
chain 3: QVQLVESGGGVVQPGGSLRLSCAASGFTFSNAWMHWVRKAPGKGLEWVAQIKDKSQNYATYVAESVKGRFTISRADSKNSIYLQMNSLKTEDTAVYYCRYVHYAAGYGVDIWGQGTTVTVSSASTKGPSVFPLAPSSKSTSGGTAALGCLVKDYFPEPVTVSWNSGALTSGVHTFPAVLKSSGLYSLSSVVTVPSSSLGTQTYICNVNHKPSNTKVDKRVEPKSCDKTHTCPPCPAPEAAGGPSVFLFPPKPKDTLMISRTPEVTCVVVDVSHEDPEVKFNWYVDGVEVHNAKTKPREEQYASTYRVVSVLTVLHQDWLNGKEYKCKVSNKALPAPIEKTISKAKGQPREPQVYTLPPSRKEMTKNQVSLTCLVKGFYPSDIAVEWESNGQPENNYKTTPPVLDSDGSFFLYSKLTVDKSRWQQGNVFSCSVMHEALHNHYTQKSLSLSP
chain 4: DIVMTQSPLSLPVTPGEPASISCRSSQPLVHSNRNTYLHWYQEKPGQAPRLLIYKVSNRFSGVPDRFSGSGSGTDFTLKISRVEAEDVGVYYCGQGTQVPYTFGQGTKLEIKRTVAAPSVFIFPPSDEQLKSGTAEVVCLLNNFYPREAKVQWKVDNALQSGNSEESVTEQDSKDSTYSLSSTLELSKADYEKHKVYACEVTHQGLSSPVTKSFNRGEC
For B2, in data set [2], the “AST, ALT, GLDH, ALP, TBIL, GGT, TBA and CRP” value is listed as “Increased”.
